Experimental data: patent publication US20040248211A1, “ICAM-related protein” (priority 1992, published 2004)

B1: ICR-1.1: anti-ICAM-R monoclonal antibody, IgG2a, domain 1, ATCC HB 11053 (antibody, V domains shown)
VH: QVQLQQSGAELAKPGASVKMSCKASGYTFTVYWMHWVKQRPGQGLEWIGYINPNTDYTEYNQRFQDKATLTADKSSSTAYMQLSSLTSEDSAVYYCARWGGNSYGLDYWGQGTSVTVSS
VL: QIVLTQSPALMSASPGEKVTMTCSASSSVSYIYWYQQKPRSSPKPWIYLTSNLASGVPARFSGSGSGASYSLTISIMEAEDAATYYCQQWKSIPLTFGAGTKLELK
B2: ICR-8.1: anti-ICAM-R monoclonal antibody, IgG1, domain 1, ATCC HB 11232 (antibody, V domains shown)
VH: EIQLQQTGPELVKPGASVKISCKASGYSFTDCIILWVKQSHGKGLEWIGKINPYFGTTTYNLKFKGKATLTVDKSSSTAHMQLNSLTSEDSAVYYCARKEAYPDAMDYWGQGTSVTVSS
VL: DAVMTQTPLSLPVSLGDQASISCRSSQSLVHSNGDTYLHWYLQKPGQSPQLLIYKVSNRFSGVPDRFSGSGSGTDFTLKLSRVEAEDLGVYFCSQSTHVPYTFGGGTKLEIK

What was measured:
PBMC [1] = experiment: PBMC activation markers on immobilized antibody; format: cell-based, human; conditions: immobilized antibody 10 μg/well; no other stimuli
Description: Anti-ICAM-R monoclonal antibodies ICR-1.1 and ICR-4.2 were each tested for the ability to induce PMBC activation in the absence of other inducing stimuli. Monoclonal antibodies ICR-1.1 or ICR-4.2 (or control monoclonal antibodies) were added (10 μg/well in PBS) to individual wells of a 96-well flat bottom tissue culture plate and incubated for 3 hours at 37° C. in a 5% CO2 incubator. The plates were washed 3 times with sterile PBS to remove unbound antibody and freshly isolated PBMC were immediately added to a final concentration of 2×10^5 cells/well in a volume of 200 μl media. The plates were then incubated for either 1 or 3 days at which time the cells cultured in the presence of different antibodies were removed, washed as described above in PBS containing 0.01% sodium azide and 1% BSA (FACS buffer) and stained with either FITC (Becton Dickinson)-conjugated negative control antibodies or a panel of FITC-conjugated anti-CD69, anti-transferrin receptor and anti-IL-2 receptor antibodies. Results were obtained by FACScan analysis. […] However, while increased expression of these lymphocyte activation markers was observed after 1 and 3 days this increased expression was unaccompanied by increased cell size.

Jurkat T leukemic cells = experiment: F-actin and G-actin cell content; format: cell-based, human
Description: Cellular shape changes (such as cell spreading) as well as T-cell activation are associated with changes in the cytoskeletal actin network manifested by alteration of the ratio of globular actin (G-actin) to filamentous actin (F-actin). To test whether the engagement by ICAM-R antibodies of ICAM-R expressed on Jurkat T leukemic cells would induce changes in cellular actin ratios, studies measuring F-actin and G-actin cell content were carried out by methods known in the art.

PBMC [2] = experiment: PBMC activation markers, immobilized antibody plus low dose anti-CD3; format: cell-based, human; conditions: immobilized antibody 10 μg/well plus anti-CD3 0.025 μg/well
Description: Ten μg of anti-ICAM-R monoclonal antibodies ICR-1.1 or ICR-4.2 (or control monoclonal antibodies to HLA Class I; Serotec, Oxford, England) were added per well of 96-well flat bottom tissue culture plates either in the presence or absence of anti-CD3 antibody initially added at 0.025 μg/well and washed to remove unbound antibody. Freshly obtained PBMC were immediately added (2×10^5 cells/well). The cells were then incubated for a total of either 16 hours or 3 days at which time the cells were removed and washed 2 times in ice cold FACS buffer. Two×10^5 cells were then resuspended in 50 μl ice cold FACS buffer, and 5 μl of FITC-conjugated anti-CD69, anti-transferrin receptor, anti-IL-2 receptor antibody or anti-FITC conjugated control Ig was added. The cells were incubated at 4° C. for 30 minutes and then washed 2 times in 0.5 ml ice cold FACS buffer. After the final wash the cells were resuspended in 0.5 ml FACS buffer and fluorescence determined by FACScan analysis. […] The effect was more pronounced with antibody ICR-1.1. Similar results were also obtained after 16 hours in culture.

Resting PBL = experiment: CD69 and CD25 upregulation after prepulse; format: cell-based, human; conditions: 24 hours
Description: Resting PBL isolated as described in Section I above were prepulsed on ICR-1.1 or negative control antibodies, washed and incubated on immobilizedanti-CD3 for 24 hours. The cells were then collected, labeled with monoclonal antibodies to the lymphocyte activation antigens CD69, CD25 and CD80 and examined by flow cytometry.

resting lymphocytes = experiment: Restoration of anti-CD3 proliferation by IL-2; format: cell-based; conditions: human rIL-2 30 U/ml
Description: Human PBL were fractionated and incubated on immobiized monoclonal antibodies as described in Section I above. The cells were collected, washed and replated on anti-CD3 either in the presence or absence of human rIL-2 at 30 U/ml.

[3] = tested on: CD4+ T cells with allogeneic epidermal cells; experiment: Langerhans cell alloantigen presentation to CD4+ T cells; format: cell-based, human; conditions: 50 μg antibody
Description: Blocking experiments were performed to determine whether the observed ICAM-R expression on Lcs was functionally important in antigen presentation. CD4^+ T cells were prepared from peripheral blood and 10^5 CD4^+ T cells were combined with 4×10^4 epidermal cells harvested from keratome biopsies of normal skin of an individual allogenic to the T cell donor. Proliferation was measured by ^3H thymidine uptake. Alloantigen presentation was unaffected by addition of 50 μg IgG1 isotype control. […] Inhibition was 73% of that produced by addition of anti-LFA-1 (anti-CD11a) antibody.

Molecule	PBMC activation marker expression after 1 day (PBMC [1])	PBMC activation marker expression after 3 days (PBMC [1])	time to peak F-actin content (Jurkat T leukemic cells; OKT3 plus gam, ICR-1.1 without gam) [min]	F-actin content (Jurkat T leukemic cells; OKT3 plus goat anti-mouse crosslinker (gam), ICR-1.1 without gam)	cellular G-actin (Jurkat T leukemic cells; with gam crosslinker)	rise of F-actin content (Jurkat T leukemic cells; with gam crosslinker, prolonged plateau)	PBMC activation marker expression after 16 hours (PBMC [2])	PBMC activation marker expression after 3 days (PBMC [2])	upregulation of CD69 and CD25 in response to immobilized anti-CD3 after prepulse (Resting PBL)	proliferative response to anti-CD3 after prepulse, with added IL-2 (resting lymphocytes)	inhibition relative to that produced by anti-LFA-1 (anti-CD11a) antibody [3] [%]	reduction in Lcs alloantigen-driven proliferative response of T cells [3] [%]
B1	Expression of CD69 and the transferrin receptor but not the IL-2 receptor increased	increased levels of cell surface expression of both the transferrin receptor and IL-2 receptor but not CD69	≤ 60	slight transient increase in F-actin content	gradual decrease in cellular G-actin	75-100%	induced expression of CD69, but not the transferrin receptor	significant upregulation of both the transferrin and IL-2 receptors	do not exhibit decreased ability to upregulate the activation antigens CD69 and CD25	completely restored proliferative responses		
B2											73	47
